{"source": "patent US6521594", "key": {"αvβ5": {"target": "αvβ5", "test": "ELISA"}, "[1]": {"target": "Platelet glycoprotein IIb/IIIa (human) (UniProt P08514)", "test": "cell-based or functional assay"}, "[2]": {"target": "Platelet glycoprotein IIb/IIIa (human) (UniProt P08514)", "test": "ELISA"}, "[3]": {"target": "Vitronectin receptor (human) (UniProt P06756)", "test": "competition, ELISA or liposome assay, vitronectin coated"}}, "note": "Non-standard residues stand in square brackets, D forms with d. No end group written: not given here. *: point of attachment. Pmc = Cc1c(C)c(S(=O)(=O)*)c(C)c2c1OC(C)(C)CC2; 2Nal = N[C@@H](Cc1ccc2ccccc2c1)C(=O)O; Pen = CC(C)(S)[C@H](N)C(=O)O"}
{"substance": "R(Pmc)GHRGD[2Nal]RCR", "values": [{"measurement": "IC50", "setting": "αvβ5", "value": 10, "unit": "µM"}]}
{"substance": "Ac-CNPRGD(Y-OMe)LC-NH2", "values": [{"measurement": "IC50", "setting": "αvβ5", "value": 7.14, "unit": "µM"}]}
{"substance": "analogue 18 (Asp for Gly at position -2 of R(Pmc)GHRGD(Y-OMe)RCR) (peptide)", "values": [{"measurement": "fold decrease in potency relative to analogue 11", "setting": "[1]", "value": 4, "unit": "fold"}]}
{"substance": "Ac-(Pmc)NPRGD(Y-OMe)RC-NH2", "values": [{"measurement": "IC50", "setting": "αvβ5", "value": 2.34, "unit": "µM"}]}
{"substance": "Ac(dPen)IPRGD(O-Me-Tyr)RC-NH2", "values": [{"measurement": "IC50", "setting": "[2]", "value": 0.002, "unit": "µM"}]}
{"substance": "R(Pmc)GHRGD(O-Me-Tyr)RCR (Table I, row r54) (peptide)", "values": [{"measurement": "IC50, ADP-Stimulated Aggregation", "setting": "[1]", "value": 0.44, "unit": "µM"}]}
{"substance": "(Mpr)NPRGD(Y-OMe)RC-NH2", "values": [{"measurement": "IC50", "setting": "αvβ5", "value": 3, "unit": "µM"}]}
{"substance": "G[Pen]GRGDRPCR (cysteine pairing not given here)", "values": [{"measurement": "IC50", "setting": "[3]", "value": 0.01, "unit": "µM"}]}
{"substance": "R(Pmc)GHRGD(p-Cl-F)RCR", "values": [{"measurement": "IC50", "setting": "αvβ5", "value": 15.3, "unit": "µM"}]}
{"substance": "R(Pmc)G(DY)RGD(Y-OMe)RCR", "values": [{"measurement": "IC50", "setting": "αvβ5", "value": 10, "unit": "µM"}]}
{"substance": "R2(Pen)GRGDTPCA (peptide)", "values": [{"measurement": "IC50, ADP-Stimulated Aggregation", "setting": "[1]", "value": 8.2, "unit": "µM"}, {"measurement": "IC50, Thrombin Stimulated Aggregation", "setting": "[1]", "value": 2.7, "unit": "µM"}]}
{"substance": "R(Pmc)GYRGD(Y-OMe)RCR", "values": [{"measurement": "IC50", "setting": "αvβ5", "value": 8.8, "unit": "µM"}]}
